This is an account of results in EP4471048A1, “PEPTIDE INHIBITORS OF INTERLEUKIN-23 RECEPTOR” (Zealand Pharma A/S, priority 2023, dated 2024).

B1: Compound 99 (peptide)
peptide: [β3hK]GWQE[AEF][2Nal][αMeL]E[Dab][3Pal]-NHMe
modifications: lactam 1-9; lactam (positions not given here); not fully specified (bridges); also: beta-amine of residue 1 is in one of the two lactams
B2: Compound 80 (peptide)
peptide: [NMeK][βAla]WQE[AEF][2Nal][αMeL]E[Dab][3Pal]-NHMe
modifications: lactam 1-9, 1-5; not fully specified; printed as [N-Me-Lys](1c)(6c)^†[3-Aminopropanoyl]WQE(6c)[Y(2-aminoethoxy)][2-Nal][2-Me-Leu]E(1c)[Dab][3-(3-Pyridyl)-Ala]-[NHMe], (1c) [2,11] lactam, (6c) [2,7] lactam, ^† alpha-amine in bridge; also: alpha-amine of residue 1 in bridge, which of the two lactams not given here
B3: Compound 11 (peptide)
peptide: [dDab]TVWQD[AEF][2Nal][αMeL]E[Dab][3Pal]-NH2
modifications: lactam 1-10, N-6
SMILES: CC(C)C[C@]1(C)NC(=O)[C@H](Cc2ccc3ccccc3c2)NC(=O)[C@H](Cc2ccc(OCCN)cc2)NC(=O)[C@@H]2CC(=O)N[C@H](CCNC(=O)CC[C@@H](C(=O)N[C@@H](CCN)C(=O)N[C@@H](Cc3cccnc3)C(N)=O)NC1=O)C(=O)N[C@@H]([C@@H](C)O)C(=O)N[C@@H](C(C)C)C(=O)N[C@@H](Cc1c[nH]c3ccccc13)C(=O)N[C@@H](CCC(N)=O)C(=O)N2
B4: Compound 63 (peptide)
peptide: KIVWQE[AEF][2Nal][αMeL]EP[3Pal]-NHMe
modifications: lactam 1-10; lactam (positions not given here); not fully specified (bridges); printed as K(1c)(6c)^{†}IVWQE(6c)[Y(2-aminoethoxy)][2-Nal][2-Me-Leu]E(1c)P[3-(3-Pyridyl)-Ala]-[NHMe]
B5: Compound 110 (peptide)
peptide: K[βAla]WQEW[2Nal][αMeL]E[Dab][3Pal]-NHMe
modifications: lactam 1-9, N-5
SMILES: CNC(=O)[C@H](Cc1cccnc1)NC(=O)[C@H](CCN)NC(=O)[C@@H]1CCC(=O)NCCCC[C@@H]2NC(=O)CC[C@H](NC(=O)[C@H](CCC(N)=O)NC(=O)[C@H](Cc3c[nH]c4ccccc34)NC(=O)CCNC2=O)C(=O)N[C@@H](Cc2c[nH]c3ccccc23)C(=O)N[C@@H](Cc2ccc3ccccc3c2)C(=O)N[C@@](C)(CC(C)C)C(=O)N1
B6: Compound 79 (peptide)
peptide: K[βAla][Trp(1-Me)]QE[AEF][2Nal][αMeL]E[Dab][3Pal]-NHMe
modifications: lactam 1-9, 1-5; not fully specified; printed as K(1c)(6c)^†[3-Aminopropanoyl][1-Me-Trp]QE(6c)[Y(2-aminoethoxy)][2-Nal][2-Me-Leu]E(1c)[Dab][3-(3-Pyridyl)-Ala]-[NHMe], (1c) [2,11] lactam, (6c) [2,7] lactam, ^† alpha-amine in bridge; also: alpha-amine of residue 1 in bridge, which of the two lactams not given here
B7: Compound 102 (peptide)
peptide: [iso‑Lys]WQE[AEF][2Nal][αMeL]E[Dab][3Pal]-NHMe
modifications: lactam (positions not given here); not fully specified (bridges); printed as [iso-Lys](1c)^†(6c)WQE(6c)[Y(2-aminoethoxy)][2-Nal][2-Me-Leu]E(1c)[Dab][3-(3-Pyridyl)-Ala]-[NHMe], (1c) [2,11] lactam, (6c) [2,7] lactam, ^† alpha-amine in bridge
B8: Compound 76 (peptide)
peptide: KTVWQE[AEF][2Nal][Dab]E[Dab][3Pal]
modifications: lactam 1-10, 9-C; lactam (positions not given here); not fully specified (bridges); printed as K(1c)(6c)^{†}TVWQE(6c)[Y(2-aminoethoxy)][2-Nal][Dab](7c)E(1c)[Dab][3-(3-Pyridyl)-Ala](7c)^{‡}
B9: Compound 10 (peptide)
peptide: [dOrn]TVWQD[AEF][2Nal][αMeL]E[Dab][3Pal]-NH2
modifications: lactam 1-10, N-6
SMILES: CC(C)C[C@]1(C)NC(=O)[C@H](Cc2ccc3ccccc3c2)NC(=O)[C@H](Cc2ccc(OCCN)cc2)NC(=O)[C@@H]2CC(=O)N[C@H](CCCNC(=O)CC[C@@H](C(=O)N[C@@H](CCN)C(=O)N[C@@H](Cc3cccnc3)C(N)=O)NC1=O)C(=O)N[C@@H]([C@@H](C)O)C(=O)N[C@@H](C(C)C)C(=O)N[C@@H](Cc1c[nH]c3ccccc13)C(=O)N[C@@H](CCC(N)=O)C(=O)N2
B10: Compound 91 (peptide)
peptide: [Orn][βAla]WQE[AEF][2Nal][αMeL]E[Dab][3Pal]-NHMe
modifications: lactam 1-9, 1-5; not fully specified; printed as [Orn](1c)(6c)^†[3-Aminopropanoyl]WQE(6c)[Y(2-aminoethoxy)][2-Nal][2-Me-Leu]E(1c)[Dab][3-(3-Pyridyl)-Ala]-[NHMe], (1c) [2,11] lactam, (6c) [2,7] lactam, ^† alpha-amine in bridge; also: alpha-amine of residue 1 in bridge, which of the two lactams not given here

*1 amine or outer side, *2 acyl side, *3 side chain or, on linkers, in order; H or OH if unused. Bridges are numbered along the chain shown (N, C = ends). Where no end group is shown, it is not given here. [ ]: non-standard residue; d: D form. 4‑Aminomethyl‑phenylacetyl = 4-aminomethyl-phenylacetyl unit, its amine closes the lactam, O=C(Cc1ccc(CN[*:1])cc1)[*:2]; Trp(1-Me) = Cn1cc(C[C@H](N)C(=O)O)c2ccccc21; 2Nal = N[C@@H](Cc1ccc2ccccc2c1)C(=O)O; AEF = NCCOc1ccc(C[C@H](N)C(=O)O)cc1; 3Pal = N[C@@H](Cc1cccnc1)C(=O)O; αMeL = CC(C)C[C@](C)(N)C(=O)O; CH2COCH2 = O=C(C[*:1])C[*:2]; NMeK = CN[C@@H](CCCCN)C(=O)O; β3hK = NCCCC[C@H](N)CC(=O)O; dOrn = NCCC[C@@H](N)C(=O)O; NMeS = CN[C@@H](CO)C(=O)O; dDab = NCC[C@@H](N)C(=O)O; Orn = NCCC[C@H](N)C(=O)O; Dab = NCC[C@H](N)C(=O)O; βAla = NCCC(=O)O

The target of one assay is T1, human IL-23R endogenously expressed on DB cells (human, UniProt Q5VWK5 24-629).
T1 sequence (looked up): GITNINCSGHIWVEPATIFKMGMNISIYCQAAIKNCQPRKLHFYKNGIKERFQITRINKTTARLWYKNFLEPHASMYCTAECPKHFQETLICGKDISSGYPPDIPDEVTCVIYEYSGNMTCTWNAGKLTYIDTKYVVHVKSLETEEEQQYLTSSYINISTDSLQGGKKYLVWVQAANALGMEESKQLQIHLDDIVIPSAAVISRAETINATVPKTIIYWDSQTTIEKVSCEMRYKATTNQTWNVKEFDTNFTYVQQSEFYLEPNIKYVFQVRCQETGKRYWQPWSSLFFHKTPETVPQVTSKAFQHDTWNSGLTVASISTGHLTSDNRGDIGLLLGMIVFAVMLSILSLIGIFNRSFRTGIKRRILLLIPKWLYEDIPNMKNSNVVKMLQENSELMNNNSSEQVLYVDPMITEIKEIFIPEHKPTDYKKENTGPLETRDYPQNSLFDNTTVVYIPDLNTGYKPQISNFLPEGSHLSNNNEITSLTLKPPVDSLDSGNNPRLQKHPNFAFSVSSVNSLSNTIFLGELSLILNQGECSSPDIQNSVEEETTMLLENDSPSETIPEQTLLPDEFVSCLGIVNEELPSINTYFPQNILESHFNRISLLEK
Kind of assay: cell-based or functional assay.
As to [4‑Aminomethyl‑phenylacetyl]SEWQ[Dab][AEF][2Nal][αMeL]E[Dab]-NH2 (lactam (positions not given here); bridge 3-6; not fully specified (bridges)) [Ref 125], the “hIL-23 (pSTAT3) antagonist IC50” value came to 21 nM.

With B1, the “hIL-23 (pSTAT3) antagonist % inhibition” value is 100% and the “hIL-23 (pSTAT3) antagonist IC50” value was 14 pM.

Turning to [4‑Aminomethyl‑phenylacetyl]SCWQC[AEF][2Nal][αMeL]ES-NH2 (lactam (positions not given here); bridge 3-6; not fully specified (bridges)) [Ref 81], the “hIL-23 (pSTAT3) antagonist % inhibition” value is 95% and the “hIL-23 (pSTAT3) antagonist IC50” value was determined as 21 nM.

The target in a further assay is T2, Nluc-IL23R fusion protein (human, UniProt Q5VWK5 22-629).
T2 construct: range 22-629; Stably expressed in HEK293 cells; also called hIL-23R; human IL-23R; not shown: Nanoluc protein (N1371, Promega) at the N-terminus, after a secretion signal
T2 sequence (looked up): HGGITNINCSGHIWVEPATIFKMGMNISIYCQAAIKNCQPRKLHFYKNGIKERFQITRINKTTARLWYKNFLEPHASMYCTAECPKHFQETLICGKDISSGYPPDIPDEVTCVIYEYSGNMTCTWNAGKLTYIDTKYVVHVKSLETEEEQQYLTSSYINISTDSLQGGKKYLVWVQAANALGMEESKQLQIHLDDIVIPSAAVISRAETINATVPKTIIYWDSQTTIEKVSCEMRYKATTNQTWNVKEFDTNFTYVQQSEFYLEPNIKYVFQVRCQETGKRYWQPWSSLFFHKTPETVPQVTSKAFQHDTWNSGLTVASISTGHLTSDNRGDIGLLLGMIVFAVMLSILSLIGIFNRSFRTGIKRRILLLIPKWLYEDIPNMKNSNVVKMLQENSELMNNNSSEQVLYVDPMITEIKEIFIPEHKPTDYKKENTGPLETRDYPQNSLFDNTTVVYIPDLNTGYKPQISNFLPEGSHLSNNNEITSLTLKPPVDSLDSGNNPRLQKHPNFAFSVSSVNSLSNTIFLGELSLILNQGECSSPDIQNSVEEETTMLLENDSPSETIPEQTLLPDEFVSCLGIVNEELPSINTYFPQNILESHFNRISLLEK
Put plainly: BRET competition vs TAMRA-labelled peptide, Nluc-IL23R membranes. Also: test concentration or dose not given here.
Molecule B2 returned a % displacement of 102%.

[4‑Aminomethyl‑phenylacetyl][NMeS]CWQC[AEF][2Nal][αMeL]E[Dab]-NH2 (lactam N-10; linker 3-6 via CH2COCH2) [Ref 141] returned a % displacement of 102%.

Regarding [iso‑Glu]WQE[AEF][2Nal][αMeL]K[Dab][3Pal]-NHMe (lactam 1-8, N-4; also: iso-Glu: alpha-carboxylic acid in bridge) [Compound 106], the % displacement was determined as 99%.

In the case of B3, the % displacement was 104%.

Regarding B4, the % displacement worked out at 98%.

Turning to B5, the % displacement stood at 100%.

In turn, B6 came in with a % displacement of 100%.

As to B7, the % displacement is 97%.

B8 yielded a % displacement of 92%.

As to B9, the % displacement is 107%.

B10: the % displacement stood at 100%.
